US20190367589A1 (CYTOMX THERAPEUTICS, published 2019)

What was measured:
[1] = target: T1, rat Jagged 1-Fc (R&D Systems Cat #599-JG-100) (rat, UniProt Q63722 34-1067, limits assumed); test: phage ELISA, ligand coated
T1 construct: Bought reagent; also called rJag1; rJAG1; not shown: Fc part
Excerpt: (§1) Jagged ligands were adsorbed to the wells of a 96-well ELISA plate, each ligand on a separate plate. Phage were applied to correlative wells on each plate and allowed to bind. Bound phage were visualized with an anti-M13-HRP conjugate and developed with the chromogenic substrate TMB. Also shown are the SEQ ID NOs for the each of these isolates.

[2] = target: T2, human Jagged 1-Fc (extracellular domain of human Jagged 1 fused to the Fc portion of human IgG1); R&D Systems … (human, UniProt P78504 34-1067); test: phage ELISA, ligand coated
T2 construct: extracellular domain; Bought reagent; also called hJag1; h Jagged 1; not shown: Fc portion of human IgG1
Excerpt: as §1

[3] = target: T2, human Jagged 1-Fc (extracellular domain …); test: ELISA, ligand-Fc coated, anti-human IgG Fab-specific HRP
Procedure: (§2) Bound antibody was visualized with an anti-human IgG-HRP conjugate, Fab specific, (Sigma, St Louis, Mo.; Cat # A0293-1ML) and developed with the chromogenic substrate TMB.

[4] = target: T3, human Jagged 2-Fc (R&D Systems Cat #1726-JG-050) (human, UniProt Q9Y219 27-1080, limits assumed); test: as above
T3 construct: Bought reagent; also called hJag2; h Jagged 2; not shown: Fc part
Procedure: as §2

[5] = target: T3, human Jagged 2-Fc (R&D Systems Cat …); test: phage ELISA, ligand coated
Excerpt: as §1

T3 sequence (Q9Y219 27-1080 limits assumed): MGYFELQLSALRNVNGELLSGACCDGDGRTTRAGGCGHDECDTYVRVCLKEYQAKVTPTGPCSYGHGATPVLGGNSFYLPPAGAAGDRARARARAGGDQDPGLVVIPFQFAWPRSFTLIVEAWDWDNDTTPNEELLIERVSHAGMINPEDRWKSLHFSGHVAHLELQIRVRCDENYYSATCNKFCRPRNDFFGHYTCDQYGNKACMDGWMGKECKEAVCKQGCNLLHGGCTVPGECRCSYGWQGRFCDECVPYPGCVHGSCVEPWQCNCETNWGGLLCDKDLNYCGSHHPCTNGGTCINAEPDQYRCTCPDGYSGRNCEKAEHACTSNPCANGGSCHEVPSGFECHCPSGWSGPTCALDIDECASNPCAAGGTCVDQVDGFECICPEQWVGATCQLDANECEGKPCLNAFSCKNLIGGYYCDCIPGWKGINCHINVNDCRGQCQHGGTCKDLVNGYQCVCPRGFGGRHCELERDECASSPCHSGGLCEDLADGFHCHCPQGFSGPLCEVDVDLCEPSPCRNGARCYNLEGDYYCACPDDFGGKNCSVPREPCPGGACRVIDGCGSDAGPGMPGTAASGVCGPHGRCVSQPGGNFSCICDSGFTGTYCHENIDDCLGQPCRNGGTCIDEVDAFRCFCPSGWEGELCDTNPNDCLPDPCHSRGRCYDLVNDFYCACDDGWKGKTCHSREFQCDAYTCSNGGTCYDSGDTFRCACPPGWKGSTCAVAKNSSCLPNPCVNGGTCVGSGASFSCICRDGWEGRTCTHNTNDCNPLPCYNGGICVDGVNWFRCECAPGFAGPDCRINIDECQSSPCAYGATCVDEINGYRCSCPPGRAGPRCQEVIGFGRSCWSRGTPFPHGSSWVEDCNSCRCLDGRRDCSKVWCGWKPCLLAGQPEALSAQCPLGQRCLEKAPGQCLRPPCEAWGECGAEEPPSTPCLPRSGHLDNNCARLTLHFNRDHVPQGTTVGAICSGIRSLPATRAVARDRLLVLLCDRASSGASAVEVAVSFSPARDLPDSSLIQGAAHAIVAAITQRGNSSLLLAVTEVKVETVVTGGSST

Row | binding result [1] | binding result [2] | affinity (ELISA) [3] | affinity (ELISA) [4] | binding result [5] | Binder
1 | binds | binds |  |  |  | 346.8 (Fab, V domains shown, also called Lc8/Hc8) VH: EVQLLESGGGLVQPGGSLRLSCAASGFTFSSYAMSWVRQAPGKGLEWVSSIEQMGWQTYYADSVKGRFTISRDNSKNTLYLQMNSLRAEDTAVYYCAKHIGRTNPFDYWGQGTLVTVSS VL: DIQMTQSPSSLSASVGDRVTITCRASQSISSYLNWYQQKPGKAPKLLIYAASSLQSGVPSRFSGSGSGTDFTLTISSLQPEDFATYYCQQSVVAPLTFGQGTKVEIKR
2 |  |  | > 30 nM | > 30 nM |  | anti-Jagged 13 IgG (antibody, V domains shown, Fully human IgG made from the variable domains of ScFv Jagged 13; also called anti-Jag 13) VH: EVQLLESGGGLVQPGGSLRLSCAASGFTFSSYAMSWVRQAPGKGLEWVSSIETQGPTTLYADSVKGRFTISRDNSKNTLYLQMNSLRAEDTAVYYCAKTSSAFDYWGQGTLVTVSS VL: DIQMTQSPSSLSASVGDRVTITCRASQSISSYLNWYQQKPGKAPKLLIYASSLQSGVPSRFSGSGSGTDFTLTIGSLQPEDFATYYCQQNVATPLTFGQGTKVEIKR
3 |  | binds |  |  | binds | 346.24 (Fab, V domains shown, also called Lc24/Hc24) VH: EVQLLESGGGLVQPGGSLRLSCAASGFTFSSYAMSWVRQAPGKGLEWVSSIEEMGWQTLYADSVKGRFTISRDNSKNTLYLQMNSLRAEDTAVYYCAKSAAAFDYWGQGTLVTVSS VL: DIQMTQSPSSLSASVGDRVTITCRASQSISSYLNWYQQKPGKAPKLLIYAASSLQSGVPSRFSGSGSGTDFTLTISSLQPEDFATYYCQQSVVAPLTFGQGTKVEIKR
